Assay results published in publication PMC3084679 (Molecular Biology of the Cell, 2011).

Target: recombinant Roy1–Skp1 complex (S. cerevisiae, UniProt Q04847 1-553; P52286 1-194)
Assay: pull-down

recombinant Roy1–Skp1 complex, sequence (Q04847 whole entry, chain 1 of 2): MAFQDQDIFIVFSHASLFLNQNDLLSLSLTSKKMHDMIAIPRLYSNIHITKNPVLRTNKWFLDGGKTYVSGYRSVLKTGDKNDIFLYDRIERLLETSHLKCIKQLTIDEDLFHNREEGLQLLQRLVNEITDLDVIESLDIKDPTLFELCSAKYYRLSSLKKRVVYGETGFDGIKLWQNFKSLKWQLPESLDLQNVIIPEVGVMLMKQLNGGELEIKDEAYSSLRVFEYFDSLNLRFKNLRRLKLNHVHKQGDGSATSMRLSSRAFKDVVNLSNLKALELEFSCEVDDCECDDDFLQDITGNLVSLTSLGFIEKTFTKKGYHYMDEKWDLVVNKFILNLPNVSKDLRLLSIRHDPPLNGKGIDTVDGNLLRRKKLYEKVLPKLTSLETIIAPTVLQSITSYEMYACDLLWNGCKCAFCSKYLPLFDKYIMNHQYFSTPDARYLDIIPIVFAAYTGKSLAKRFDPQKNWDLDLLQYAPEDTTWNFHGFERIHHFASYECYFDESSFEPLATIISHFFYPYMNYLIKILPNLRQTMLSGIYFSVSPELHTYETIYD
recombinant Roy1–Skp1 complex, sequence (P52286 whole entry, chain 2 of 2): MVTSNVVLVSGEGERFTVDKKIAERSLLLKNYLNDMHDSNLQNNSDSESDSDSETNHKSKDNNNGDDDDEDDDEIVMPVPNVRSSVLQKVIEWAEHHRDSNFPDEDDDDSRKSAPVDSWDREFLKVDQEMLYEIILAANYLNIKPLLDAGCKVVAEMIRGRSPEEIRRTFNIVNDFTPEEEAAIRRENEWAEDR

binding result: binds
B1: GST-Ypt52 (natural protein, S. cerevisiae, UniProt P36018 1-234, looked up)
chain: MLQFKLVLLGDSSVGKSSIVHRFVKDTFDELRESTIGAAFLSQSITIHPNDGNETKDVVIKFEIWDTAGQERYKSLAPMYYRNANAALVVYDITQEDSLQKARNWVDELKNKVGDDDLVIYLLGNKVDLCQETPSTETSPDSNEGGDEEQKVRAISTEEAKQYAQEQGLLFREVSAKTGEGVKEIFQDIGEKLYDLKKDEILSKQNRQIGGGNNGQVDINLQRPSTNDPTSCCS
